Experimental data as given in paper PMC9597168, “ATP-dependent polymerization dynamics of bacterial actin proteins involved in Spiroplasma swimming” (Open Biology, 2022).

How the values were obtained:
[1] = target: SpeMreB5 T160A (Spiroplasma eriocheiris); assay: sedimentation assay (ultracentrifugation of polymers, SDS-PAGE of pellet and supernatant); buffer S (20 mM Tris-HCl pH 8.0, 1 M NaCl, 200 mM L-arginine-HCl pH 8.0, 5 mM DTT, 2 mM MgCl2, 2 mM ATP), 1 h, 436 000 x g for 120 min at 23°C; bulk critical concentration = x-intercept of the linear fit of pellet against total concentration
SpeMreB5 = target: T1, SpeMreB5 (Spiroplasma eriocheiris, UniProt A0A0H3XIQ3); assay: Pi release assay (MESG coupled, A360); format: biochemical; conditions: 2 mM ATP, 2 mM MgCl2, pH 7.5, 100 mM KCl, about 25 °C
T1 construct: gene mreB5; full length, 6xHis fusion, E. coli expressed, purified as monomer
T1 sequence (A0A0H3XIQ3 1-350): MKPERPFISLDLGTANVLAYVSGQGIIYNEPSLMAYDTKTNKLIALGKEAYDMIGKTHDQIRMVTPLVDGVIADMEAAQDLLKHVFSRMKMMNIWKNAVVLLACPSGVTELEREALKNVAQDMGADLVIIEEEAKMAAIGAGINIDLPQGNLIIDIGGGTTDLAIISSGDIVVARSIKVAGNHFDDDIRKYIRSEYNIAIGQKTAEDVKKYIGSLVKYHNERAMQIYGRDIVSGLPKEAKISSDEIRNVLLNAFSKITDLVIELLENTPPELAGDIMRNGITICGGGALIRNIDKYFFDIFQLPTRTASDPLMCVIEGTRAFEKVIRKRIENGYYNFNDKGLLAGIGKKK

[2] = target: SpeMreB5 D162S (Spiroplasma eriocheiris); assay: sedimentation assay (ultracentrifugation of polymers, SDS-PAGE of pellet and supernatant); buffer S (20 mM Tris-HCl pH 8.0, 1 M NaCl, 200 mM L-arginine-HCl pH 8.0, 5 mM DTT, 2 mM MgCl2, 2 mM ATP), 1 h, 436 000 x g for 120 min at 23°C; bulk critical concentration = x-intercept of the linear fit of pellet against total concentration
[3] = target: Spiroplasma eriocheiris MreB3 wild-type (Spiroplasma eriocheiris); assay: as above
[4] = target: Spiroplasma eriocheiris MreB5 wild-type (Spiroplasma eriocheiris); assay: sedimentation assay (ultracentrifugation of polymers, SDS-PAGE of pellet and supernatant); buffer S with Mg-ADP instead of Mg-ATP; bulk critical concentration = x-intercept of the linear fit
[5] = target: Spiroplasma eriocheiris MreB5 wild-type (Spiroplasma eriocheiris); assay: sedimentation assay (ultracentrifugation of polymers, SDS-PAGE of pellet and supernatant); buffer S (20 mM Tris-HCl pH 8.0, 1 M NaCl, 200 mM L-arginine-HCl pH 8.0, 5 mM DTT, 2 mM MgCl2, 2 mM ATP), 1 h, 436 000 x g for 120 min at 23°C; bulk critical concentration = x-intercept of the linear fit of pellet against total concentration
[6] = target: Spiroplasma eriocheiris MreB5 wild-type (Spiroplasma eriocheiris); assay: sedimentation assay (ultracentrifugation of polymers, SDS-PAGE of pellet and supernatant); buffer S with Mg-AMPPNP instead of Mg-ATP; bulk critical concentration = x-intercept of the linear fit
[7] = target: SpeMreB5 T160K (Spiroplasma eriocheiris); assay: sedimentation assay (ultracentrifugation of polymers, SDS-PAGE of pellet and supernatant); buffer S (20 mM Tris-HCl pH 8.0, 1 M NaCl, 200 mM L-arginine-HCl pH 8.0, 5 mM DTT, 2 mM MgCl2, 2 mM ATP), 1 h, 436 000 x g for 120 min at 23°C; bulk critical concentration = x-intercept of the linear fit of pellet against total concentration
[8] = target: the molecule itself; assay: negative-staining electron microscopy; polymerized 3 h at room temperature in standard buffer (20 mM Tris-HCl pH 7.5, 100 mM KCl, 5 mM DTT) with 2 mM MgCl2 and 2 mM ATP; 10 µM SpeMreB3, 5 µM SpeMreB5, diluted to 3 µM before the grid
[9] = target: the molecule itself; assay: sedimentation assay (ultracentrifugation of polymers, SDS-PAGE of pellet and supernatant); buffer S (20 mM Tris-HCl pH 8.0, 1 M NaCl, 200 mM L-arginine-HCl pH 8.0, 5 mM DTT, 2 mM MgCl2, 2 mM ATP), 1 h, 436 000 x g for 120 min at 23°C; bulk critical concentration = x-intercept of the linear fit of pellet against total concentration

SpeMreB5 T160A (from UniProt A0A0H3XIQ3 1-350) (natural protein)
critical concentration (CC) [1]: 0.15 µM

Nc1ncnc2c1ncn2[C@@H]1O[C@H](COP(=O)(O)OP(=O)(O)OP(=O)(O)O)[C@@H](O)[C@H]1O [ATP]
Pi release assay (MESG coupled, A360) (SpeMreB5): SpeMreB5 hydrolysed ATP and released Pi over time

SpeMreB5 D162S (from UniProt A0A0H3XIQ3 1-350) (natural protein)
critical concentration (CC) [2]: 0.07 µM

Spiroplasma eriocheiris MreB3 wild-type (from UniProt A0A0H3XJK5 1-352) (natural protein)
critical concentration (CC) [3]: 2.8 µM

Spiroplasma eriocheiris MreB5 wild-type (from UniProt A0A0H3XIQ3 1-350) (natural protein)
critical concentration (CC) [4]: 0.39 µM | critical concentration (CC) [5]: 0.14 µM | critical concentration (CC) [6]: 0.29 µM

SpeMreB5 T160K (from UniProt A0A0H3XIQ3 1-350) (natural protein)
critical concentration (CC) [7]: 0 µM

B1: SpeMreB3 S176D (natural protein)
chain: MTITDVLKNTFNISPKPPRKFIAIDLGTTNSIAYIGGRGIIYNEASVMAYETGTKKLVALGEDARKLIGKTHDKIEIYTPLRNGAITDLRIAEEFIQHIGNRAKVQDVWKGSIVLIACPKSVTELERRAMVEMCKHLGADLVQVEEDTLMAALGAGANIFAPKGTFILDIGGGKTDAGIISAGGIVVSKSIKIAGNYIDEEILKYIRAKHTISIGVVTAEQIKKQIGSLYKGKETKKMVIFGRDVVTGMPKETEILDSEIRKLLISIFSSITQLVTDILESTPAELAGDAVMNGLLVSGGCAQISGLKEFLESYFQIPVKIAKNPQTAVIDGCIAYEKEIRDRLIEENKKNK
binding result [8]: binds

B2: SpeMreB3 D147E (natural protein)
chain: MTITDVLKNTFNISPKPPRKFIAIDLGTTNSIAYIGGRGIIYNEASVMAYETGTKKLVALGEDARKLIGKTHDKIEIYTPLRNGAITDLRIAEEFIQHIGNRAKVQDVWKGSIVLIACPKSVTELERRAMVEMCKHLGADLVQVEEETLMAALGAGANIFAPKGTFILDIGGGKTSAGIISAGGIVVSKSIKIAGNYIDEEILKYIRAKHTISIGVVTAEQIKKQIGSLYKGKETKKMVIFGRDVVTGMPKETEILDSEIRKLLISIFSSITQLVTDILESTPAELAGDAVMNGLLVSGGCAQISGLKEFLESYFQIPVKIAKNPQTAVIDGCIAYEKEIRDRLIEENKKNK
critical concentration (CC) [9]: 1.26 µM

B3: SpeMreB3 K174T (natural protein)
chain: MTITDVLKNTFNISPKPPRKFIAIDLGTTNSIAYIGGRGIIYNEASVMAYETGTKKLVALGEDARKLIGKTHDKIEIYTPLRNGAITDLRIAEEFIQHIGNRAKVQDVWKGSIVLIACPKSVTELERRAMVEMCKHLGADLVQVEEDTLMAALGAGANIFAPKGTFILDIGGGTTSAGIISAGGIVVSKSIKIAGNYIDEEILKYIRAKHTISIGVVTAEQIKKQIGSLYKGKETKKMVIFGRDVVTGMPKETEILDSEIRKLLISIFSSITQLVTDILESTPAELAGDAVMNGLLVSGGCAQISGLKEFLESYFQIPVKIAKNPQTAVIDGCIAYEKEIRDRLIEENKKNK
critical concentration (CC) [9]: 2.2 µM

B4: SpeMreB3 K174T/S176D (natural protein)
chain: MTITDVLKNTFNISPKPPRKFIAIDLGTTNSIAYIGGRGIIYNEASVMAYETGTKKLVALGEDARKLIGKTHDKIEIYTPLRNGAITDLRIAEEFIQHIGNRAKVQDVWKGSIVLIACPKSVTELERRAMVEMCKHLGADLVQVEEDTLMAALGAGANIFAPKGTFILDIGGGTTDAGIISAGGIVVSKSIKIAGNYIDEEILKYIRAKHTISIGVVTAEQIKKQIGSLYKGKETKKMVIFGRDVVTGMPKETEILDSEIRKLLISIFSSITQLVTDILESTPAELAGDAVMNGLLVSGGCAQISGLKEFLESYFQIPVKIAKNPQTAVIDGCIAYEKEIRDRLIEENKKNK
critical concentration (CC) [9]: 2.15 µM
